Assay results as given in patent publication US7026456.

Target: natural human IL-12 (p75 heterodimer), purified from stimulated human blood cultures (human) (UniProt P29459)
Assay: cell-based or functional assay

UniProt P29459, sequence (P29459 23-219, chain 1 of 2): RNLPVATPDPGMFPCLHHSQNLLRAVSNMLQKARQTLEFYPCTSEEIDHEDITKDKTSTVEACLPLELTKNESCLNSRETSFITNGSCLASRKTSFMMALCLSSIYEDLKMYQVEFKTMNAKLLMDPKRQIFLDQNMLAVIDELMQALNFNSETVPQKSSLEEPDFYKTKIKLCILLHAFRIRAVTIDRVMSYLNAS
UniProt P29459, sequence (P29460 23-328, chain 2 of 2, further chain): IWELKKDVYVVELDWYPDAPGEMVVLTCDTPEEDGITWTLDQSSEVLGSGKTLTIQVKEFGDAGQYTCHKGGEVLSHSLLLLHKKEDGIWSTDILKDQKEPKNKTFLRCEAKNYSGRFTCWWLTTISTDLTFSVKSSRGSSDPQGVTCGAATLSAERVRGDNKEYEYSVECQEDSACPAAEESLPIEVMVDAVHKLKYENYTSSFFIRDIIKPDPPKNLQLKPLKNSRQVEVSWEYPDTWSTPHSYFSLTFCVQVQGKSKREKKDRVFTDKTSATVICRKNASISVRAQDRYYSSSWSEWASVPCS

| IC50 of 0.25 ng/ml IL-12-stimulated proliferation of PHA-activated human lymphoblasts | IC50 of 0.25 ng/ml human IL-12-stimulated IFN-γ production by PHA-activated human lymphoblasts | inhibition of IL-12-stimulated IFN-γ production at 0.5 µg/ml antibody | inhibition of human IL-12 stimulated PHA activated lymphoblast proliferation | Binder |
| --- | --- | --- | --- | --- |
| 0.01 µg/mL | 0.01 µg/mL | > 90% | > 90% | monoclonal antibody 16G2, produced by hybridoma HIL-12F3-16G2 (ATCC HB-12449) (antibody, part only; not given: light chain and constant regions, V domains shown, part only) VH: LEESGPSLVKPSQTLSLTCSVTGDSITSGYWNWIRKFPGNKFEYMGFISYSGSTYNNPSLKNRVSITRDTSNNQYYLQLSSVTTEDSATYYCARSSDALDYWGAGTT |
| 0.01 µg/mL | 0.02 µg/mL | > 90% | > 90% | monoclonal antibody 20E11, produced by hybridoma HIL-12F3-20E11 (ATCC HB-12448) (antibody, part only; not given: light chain and constant regions, V domains shown, part only) VH: EESGPSLVKPSQTLSLTCSVTGDSITSGYWNWIRKFPDNTLEYMGYISYSGSTYYNPSLRSRISITRDTSKNQYSMQLNSVTTEDTATYYCARSSDAMDYWG |
